According to article PMC3713010, “Sox2 Transcriptionally Regulates Pqbp1, an Intellectual Disability-Microcephaly Causative Gene, in Neural Stem Progenitor Cells”:

B1: Sox2-Pax6 consensus probe (dsDNA)
DNA 1: GGGAAATATTCATTGTTGTTGCTCACCTACCATGGA
DNA 2: TCCATGGTAGGTGAGCAACAACAATGAATATTTCCC
B2: Sox2-Brn2 consensus probe (dsDNA)
DNA 1: GGGTAGTGTGGACAAAAGGCAATAATTAGCATGAGAATC
DNA 2: GATTCTCATGCTAATTATTGCCTTTTGTCCACACTACCC

Tests used:
Sox2;Pax6 = Sox2;Pax6 (Mus musculus (B6);Mus musculus (B6), UniProt P48432;P63015 1-319;1-422, |); assay: EMSA; supershift with anti-Pax6; EMSA: 20 ng GST-fusion protein, 20 mM HEPES pH 7.8, 45 mM KCl, 10 mM NaCl, 1 mM EDTA, 1 mM DTT, 10% glycerol, 0.2 ug/uL BSA, 0.1% NP-40, 50 ng poly-dIdC; RT 30; conditions: protein: recombinant;recombinant; tags: GST (N-terminal, pGEX-6P-1);GST (N-terminal, pGEX-6P-1); copies: 1;1; label: 32P
Sox2;Pax6, sequence (P48432 whole entry, chain 1 of 2, the tested form may be a part): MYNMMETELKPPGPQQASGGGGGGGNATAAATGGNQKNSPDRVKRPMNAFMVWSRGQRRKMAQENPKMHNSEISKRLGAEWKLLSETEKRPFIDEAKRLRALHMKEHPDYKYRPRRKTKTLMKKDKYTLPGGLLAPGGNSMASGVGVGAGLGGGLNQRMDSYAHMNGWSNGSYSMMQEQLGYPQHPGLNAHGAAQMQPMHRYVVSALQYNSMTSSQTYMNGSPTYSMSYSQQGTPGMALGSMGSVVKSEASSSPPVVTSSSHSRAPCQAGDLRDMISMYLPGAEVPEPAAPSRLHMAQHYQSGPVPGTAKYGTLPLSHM
Sox2;Pax6, sequence (P63015 whole entry, chain 2 of 2, the tested form may be a part): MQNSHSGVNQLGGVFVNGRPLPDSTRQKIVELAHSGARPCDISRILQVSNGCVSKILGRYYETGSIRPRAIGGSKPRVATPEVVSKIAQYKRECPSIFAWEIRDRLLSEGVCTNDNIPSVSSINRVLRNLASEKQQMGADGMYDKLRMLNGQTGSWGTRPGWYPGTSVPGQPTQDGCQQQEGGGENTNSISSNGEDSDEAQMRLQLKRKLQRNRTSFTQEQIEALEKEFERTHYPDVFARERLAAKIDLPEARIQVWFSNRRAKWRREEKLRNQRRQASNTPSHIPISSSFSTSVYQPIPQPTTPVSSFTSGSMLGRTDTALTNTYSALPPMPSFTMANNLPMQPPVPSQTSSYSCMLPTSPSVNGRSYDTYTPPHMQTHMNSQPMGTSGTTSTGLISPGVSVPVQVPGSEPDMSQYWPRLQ

Sox2;Brn2 = Sox2;Brn2 (Mus musculus (B6);Mus musculus (B6), UniProt P48432;P31360 1-319;1-445, |); assay: EMSA; supershift with anti-Brn2; EMSA: 20 ng GST-fusion protein, 20 mM HEPES pH 7.8, 45 mM KCl, 10 mM NaCl, 1 mM EDTA, 1 mM DTT, 10% glycerol, 0.2 ug/uL BSA, 0.1% NP-40, 50 ng poly-dIdC; RT 30; conditions: protein: recombinant;recombinant; tags: GST (N-terminal, pGEX-6P-1);GST (N-terminal, pGEX-6P-1); copies: 1;1; label: 32P
Sox2;Brn2, sequence (P48432 whole entry, chain 1 of 2, the tested form may be a part): as the sequence (P48432 whole entry, chain 1 of 2, the tested form may be a part) above
Sox2;Brn2, sequence (P31360 whole entry, chain 2 of 2, the tested form may be a part): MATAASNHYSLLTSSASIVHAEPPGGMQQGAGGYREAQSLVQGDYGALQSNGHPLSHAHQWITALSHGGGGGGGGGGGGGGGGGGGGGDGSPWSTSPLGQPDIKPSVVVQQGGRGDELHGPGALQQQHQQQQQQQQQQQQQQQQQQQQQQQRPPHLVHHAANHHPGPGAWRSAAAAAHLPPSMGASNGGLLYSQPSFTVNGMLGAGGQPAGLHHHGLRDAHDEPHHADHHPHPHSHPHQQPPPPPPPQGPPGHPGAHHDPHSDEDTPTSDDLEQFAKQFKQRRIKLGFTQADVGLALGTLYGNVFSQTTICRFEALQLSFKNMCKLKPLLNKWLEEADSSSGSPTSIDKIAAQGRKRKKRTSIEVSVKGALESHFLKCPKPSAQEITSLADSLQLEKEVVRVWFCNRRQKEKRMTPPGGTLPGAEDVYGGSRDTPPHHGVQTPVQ

| Binder | binding result (Sox2;Pax6) | binding result (Sox2;Brn2) |
| --- | --- | --- |
| B1 | binds |  |
| B2 |  | binds |
